The source of these data is US20210315933A1 (TCR2 THERAPEUTICS, published 2021).

Where a chain is given by its changes, count along the chain named.

As usually defined, the Kd is the equilibrium constant for the complex coming apart.

Assay [1] addresses T1, human IL13Rα2 on cells (human, UniProt Q14627 27-380).
T1 construct: whole, on cells; also called hIL13Rα2
T1 sequence (looked up): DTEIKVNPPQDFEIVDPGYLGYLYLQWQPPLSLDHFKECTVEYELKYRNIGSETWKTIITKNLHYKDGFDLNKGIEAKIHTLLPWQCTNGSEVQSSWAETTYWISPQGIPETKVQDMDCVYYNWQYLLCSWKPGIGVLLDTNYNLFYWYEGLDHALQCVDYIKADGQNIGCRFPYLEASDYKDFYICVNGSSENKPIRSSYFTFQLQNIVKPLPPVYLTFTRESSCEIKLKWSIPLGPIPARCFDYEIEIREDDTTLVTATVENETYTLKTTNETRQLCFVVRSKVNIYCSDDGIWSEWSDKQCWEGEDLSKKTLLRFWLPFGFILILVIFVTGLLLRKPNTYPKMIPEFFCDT
The assay can be described thus: flow cytometry control; cell line not stated. On the technique in general: Flow cytometry measures light scatter and fluorescence of single cells or particles in a stream.

Assay [2] has as its target T2, recombinant human IL13Rα2 fused to an Fc domain of human IgG1 (hIL13Rα2-Fc) (human, UniProt Q14627 27-343, limits assumed).
T2 construct: Bought construct (R&D Systems); The Fc can be removed by Factor Xa, so a Factor Xa site lies between the parts; not shown: Fc domain of human IgG1
T2 sequence (looked up): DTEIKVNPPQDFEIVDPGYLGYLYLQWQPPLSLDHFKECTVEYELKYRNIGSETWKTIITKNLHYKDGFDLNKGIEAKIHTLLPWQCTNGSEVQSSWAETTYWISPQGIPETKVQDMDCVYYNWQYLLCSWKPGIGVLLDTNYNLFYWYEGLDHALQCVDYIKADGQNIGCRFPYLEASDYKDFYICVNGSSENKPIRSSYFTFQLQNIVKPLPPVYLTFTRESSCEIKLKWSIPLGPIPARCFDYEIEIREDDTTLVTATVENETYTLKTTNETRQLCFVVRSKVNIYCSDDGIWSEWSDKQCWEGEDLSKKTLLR
The assay can be described thus: Octet (BLI); nanobody on Ni-NTA sensor, IL13Rα2-Fc in solution. As for the experimental part: (§1) Two clones were chosen for humanization. […] Each humanized nanobody was analyzed by Octet at 500 nM on an Ni-NTA sensor, with three fold dilutions of antigen (IL13Rα2-Fc) at 125 nM, 41.66 nM, and 13.86 nM. A summary of the octed measurements for each of the humanized variants depicted in FIG. 1 is shown in Table 1 (clone 1) and Table 2 (clone 2).
On the technique in general: BLI is a label-free optical method that tracks binding on a fibre tip over time.

Assay [3] deals with T1, human IL13Rα2 on cells. The assay can be described thus: flow cytometry; cell line not stated.
The target in assay [4] is T2, recombinant human IL13Rα2 fused to an …. As to the kind of experiment: Octet KD relative to clone 1 parental. As for the experimental part:
as §1

In the assay with human IL13Rα2 on cells [1], “2o Ab (secondary antibody alone, flow cytometry control)” gave a Flow Cytometry MFI of 90.4 MFI.

Turning to “Isotype Control (flow cytometry control) (antibody)”, the Flow Cytometry MFI with human IL13Rα2 on cells [1] stood at 21.4 MFI.

B1: Humanized Llama single domain anti-IL13Rα2 Clone 1-h10 (H2-LSD1) (VHH)
VHH: EVQLVESGGGLVQPGGSLRLSCAASGFTSDYYIMGWVRQAPGKGLEWVSCISSKYANTYYADSVKGRFTISRDNAKNTLYLQMNSLRPEDTAVYYCAADTRRYTCPDIATMHRNFDSWGQGTLVTVSS
notes: Captured on a Ni-NTA sensor, so a His tag is implied; the tag is not described
For the molecule B1, the Kd in assay [2] came out at 1.46 nM. Further, in the assay with human IL13Rα2 on cells [3], the “Flow Cytometry MFI” value was found to be 639 MFI. The KD fold difference in assay [4] was found to be 2.3 fold.

B2: anti-IL13Rα2 Clone 1 humanized variant 1-h9 (VHH)
VHH: B1 VHH with V37F
Regarding B2, in assay [2], the Kd was 1.91 nM. In addition, the “Flow Cytometry MFI” value with human IL13Rα2 on cells [3] worked out at 842 MFI. The KD fold difference in assay [4] turned out to be 3 fold.
